Measurements as given in the supplement of paper PMC9116672.
± gives the standard deviation of the averaged measurements or the uncertainty stated by the source.

Assays:
[1] = duplex melting temperature (HRM, EvaGreen); higher = more stable duplex
Method: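 Listed DNA strand annealed 1:1 with its complementary strand (95 °C 5 min, 0.1 °C/s to 20 °C). Melted in 1x NNE buffer (500 mM NaCl, 10 mM Na2HPO4, 1 mM EDTA, pH 7.0) with 1x EvaGreen on a LightCycler96 (37 to 97 °C, 0.1 °C/s). Tm is the peak of -dF/dT at the stated total duplex concentration; 4 replicates are averaged. PS oligos are non-stereospecific (Rp/Sp mixtures).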

[2] = duplex formation enthalpy ΔH (Van't Hoff fit of HRM Tm); higher = less exothermic duplex formation; conditions: temperature for dG: 50 °C, NaCl: 500 mM (unadjusted)
Method: (§1)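 Duplex of the listed DNA strand with its complement, in 1x NNE buffer (500 mM NaCl, pH 7.0) with 1x EvaGreen. ΔH and ΔS come from a Van't Hoff linear fit of 1/Tm against ln(CT/4) over 1-20 uM, using HRM Tm values.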

[3] = duplex formation entropy ΔS (Van't Hoff fit of HRM Tm); higher = smaller entropy loss on duplex formation; conditions: temperature for dG: 50 °C, NaCl: 500 mM (unadjusted)
Method: as §1

[4] = duplex formation free energy ΔG50 (Van't Hoff fit of HRM Tm); higher = less stable duplex; conditions: temperature for dG: 50 °C, NaCl: 500 mM (unadjusted)
Method: as §1

[5] = duplex concentration 1 µM, backbone: PS-PS (both strands fully phosphorothioate)
[6] = duplex concentration 2.5 µM, backbone: PO-PO (both strands phosphodiester DNA)
[7] = duplex concentration 2.5 µM, backbone: PS-PO (listed strand fully phosphorothioate, complement phosphodiester)
[8] = duplex concentration 2.5 µM, backbone: PS-PS (both strands fully phosphorothioate)
[9] = duplex concentration 5 µM, backbone: PO-PO (both strands phosphodiester DNA)
[10] = duplex concentration 5 µM, backbone: PS-PO (listed strand fully phosphorothioate, complement phosphodiester)
[11] = duplex concentration 5 µM, backbone: PS-PS (both strands fully phosphorothioate)
[12] = duplex concentration 7.5 µM, backbone: PO-PO (both strands phosphodiester DNA)
[13] = duplex concentration 7.5 µM, backbone: PS-PO (listed strand fully phosphorothioate, complement phosphodiester)
[14] = duplex concentration 7.5 µM, backbone: PS-PS (both strands fully phosphorothioate)
[15] = duplex concentration 10 µM, backbone: PO-PO (both strands phosphodiester DNA)
[16] = duplex concentration 10 µM, backbone: PS-PO (listed strand fully phosphorothioate, complement phosphodiester)
[17] = duplex concentration 10 µM, backbone: PS-PS (both strands fully phosphorothioate)
[18] = duplex concentration 15 µM, backbone: PO-PO (both strands phosphodiester DNA)
[19] = duplex concentration 15 µM, backbone: PS-PO (listed strand fully phosphorothioate, complement phosphodiester)
[20] = duplex concentration 15 µM, backbone: PS-PS (both strands fully phosphorothioate)
[21] = duplex concentration 20 µM, backbone: PO-PO (both strands phosphodiester DNA)
[22] = duplex concentration 20 µM, backbone: PS-PO (listed strand fully phosphorothioate, complement phosphodiester)
[23] = duplex concentration 20 µM, backbone: PS-PS (both strands fully phosphorothioate)
[24] = backbone: PO-PO (both strands phosphodiester DNA)
[25] = backbone: PS-PO (listed strand fully phosphorothioate, complement phosphodiester)
[26] = backbone: PS-PS (both strands fully phosphorothioate)

Sequence	duplex melting temperature [1, 5] [°C]	duplex melting temperature [1, 6] [°C]	duplex melting temperature [1, 7] [°C]	duplex melting temperature [1, 8] [°C]	duplex melting temperature [1, 9] [°C]	duplex melting temperature [1, 10] [°C]	duplex melting temperature [1, 11] [°C]	duplex melting temperature [1, 12] [°C]	duplex melting temperature [1, 13] [°C]	duplex melting temperature [1, 14] [°C]	duplex melting temperature [1, 15] [°C]	duplex melting temperature [1, 16] [°C]	duplex melting temperature [1, 17] [°C]	duplex melting temperature [1, 18] [°C]	duplex melting temperature [1, 19] [°C]	duplex melting temperature [1, 20] [°C]	duplex melting temperature [1, 21] [°C]	duplex melting temperature [1, 22] [°C]	duplex melting temperature [1, 23] [°C]	duplex formation enthalpy ΔH [2, 24] [kcal/mol]	duplex formation enthalpy ΔH [2, 25] [kcal/mol]	duplex formation enthalpy ΔH [2, 26] [kcal/mol]	duplex formation entropy ΔS [3, 24] [cal/mol/K]	duplex formation entropy ΔS [3, 25] [cal/mol/K]	duplex formation entropy ΔS [3, 26] [cal/mol/K]	duplex formation free energy ΔG50 [4, 24] [kcal/mol]	duplex formation free energy ΔG50 [4, 25] [kcal/mol]	duplex formation free energy ΔG50 [4, 26] [kcal/mol]	duplex melting temperature ([1]; duplex concentration 1 µM, backbone: PO-PO (both strands phosphodiester DNA)) [°C]	duplex melting temperature ([1]; duplex concentration 1 µM, backbone: PS-PO (listed strand fully phosphorothioate, complement phosphodiester)) [°C]
CCGTTGCTGCTAGG	45.8 ± 0.71	65.75 ± 0.21	59.6	49.3 ± 1.4	68 ± 0.31	61.1 ± 1	53.433 ± 0.0017	69.13 ± 0.18	63.1 ± 0.69	56	70.55 ± 0.22	63.92 ± 0.4	57.4	71.88 ± 0.22	65.35 ± 0.083	60.5	72.82 ± 0.098	65.77 ± 0.2	61.75 ± 0.28	-67.8 ± 4.5	-69.4 ± 7.8	-40.7 ± 2.5	-172 ± 13	-180 ± 23	-97.4 ± 7.7	-12.3 ± 0.25	-11.1 ± 0.33	-9.23 ± 0.051		
AGAGCGCCCTGCTGCC	61.69 ± 0.3	76.76 ± 0.43	69.05 ± 0.38	64.26 ± 0.22	78.81 ± 0.32	71.34 ± 0.29	66.24 ± 0.22	79.83 ± 0.11	72.67 ± 0.34	67.29 ± 0.24	80.68 ± 0.17	73.6 ± 0.23	68.17 ± 0.076	81.9 ± 0.28	74.83 ± 0.1	69.33 ± 0.14	82.78 ± 0.25	75.7 ± 0.12	70.195 ± 0.058	-86.9 ± 3.2	-74.4 ± 2.6	-80.8 ± 1.7	-220 ± 9	-189 ± 7.4	-211 ± 5	-15.8 ± 0.28	-13.3 ± 0.17	-12.59 ± 0.085		
GTCATTGTGCTTTTGC	45.054 ± 0.018	63.26 ± 0.54	52.96 ± 0.069	46.77 ± 0.14	65.29 ± 0.25	55.24 ± 0.19	48.65 ± 0.052	66.35 ± 0.14	56.46 ± 0.16	49.65 ± 0.053	67.27 ± 0.084	57.2 ± 0.17	50.58 ± 0.096	68.53 ± 0.17	58.37 ± 0.089	51.65 ± 0.14	69.4 ± 0.17	59.15 ± 0.096	52.76 ± 0.13	-78.5 ± 1.9	-69.8 ± 2.2	-79.9 ± 3.5	-205 ± 5.7	-186 ± 6.7	-221 ± 11	-12.27 ± 0.096	-9.798 ± 0.043	-8.432 ± 0.028	60.6	49.8 ± 0.38
